{
  "source": "paper PMC7038996",
  "binders": {"B1": {"name": "dsDNA-SSB (dsDNA)", "DNA 1": "TCGGTACCCGGGGATCCTCTAGAGTCGACC", "DNA 2": "TGCAGGCATGCAAGCTTGGCGTAATCATGGTCATAGCTGT", "DNA 3": "ACAGCTATGACCATGATTACGCCAAGCTTGCATGCCTGCAGGTCGACTCTAGAGGATCCCCGGGTACCGA", "modifications": "nick between nt 30 and 31 of S1 (Nt.BstNBI, …^); CIP-treated"}, "B2": {"name": "biotin-dsDNA-SSB (dsDNA)", "DNA 1": "TCGGTACCCGGGGATCCTCTAGAGTCGACC", "DNA 2": "TGCAGGCATGCAAGCTTGGCGTAATCATGGTCATAGCTGT", "DNA 3": "ACAGCTATGACCATGATTACGCCAAGCTTGCATGCCTGCAGGTCGACTCTAGAGGATCCCCGGGTACCGA", "modifications": "nick by Nt.BstNBI; CIP-treated"}, "B3": {"name": "dsDNA (70 bp) (dsDNA)", "DNA 1": "TCGGTACCCGGGGATCCTCTAGAGTCGACCTGCAGGCATGCAAGCTTGGCGTAATCATGGTCATAGCTGT", "DNA 2": "ACAGCTATGACCATGATTACGCCAAGCTTGCATGCCTGCAGGTCGACTCTAGAGGATCCCCGGGTACCGA"}, "B4": {"name": "biotin-dsDNA (dsDNA)", "DNA 1": "TCGGTACCCGGGGATCCTCTAGAGTCGACCTGCAGGCATGCAAGCTTGGCGTAATCATGGTCATAGCTGT", "DNA 2": "ACAGCTATGACCATGATTACGCCAAGCTTGCATGCCTGCAGGTCGACTCTAGAGGATCCCCGGGTACCGA"}},
  "key": {"GST-APE1 WT [1]": {"molecular_target": "T1, GST-APE1 WT (Xenopus laevis, UniProt Q6IP62 1-316)", "T1 sequence": "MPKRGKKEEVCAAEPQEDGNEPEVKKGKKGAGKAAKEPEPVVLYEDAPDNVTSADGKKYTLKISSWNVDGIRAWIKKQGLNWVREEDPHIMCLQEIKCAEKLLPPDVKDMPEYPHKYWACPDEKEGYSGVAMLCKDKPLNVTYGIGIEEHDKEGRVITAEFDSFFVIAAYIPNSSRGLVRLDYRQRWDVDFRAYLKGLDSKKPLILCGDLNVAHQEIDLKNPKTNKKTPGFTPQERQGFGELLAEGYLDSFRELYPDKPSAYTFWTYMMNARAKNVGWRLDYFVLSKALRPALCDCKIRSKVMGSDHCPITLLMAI", "assay": "EMSA"}, "GST-APE1 CA": {"molecular_target": "T2, GST-APE1 CA (Xenopus laevis, UniProt Q6IP62 1-316, C92A;C98A)", "T2 sequence": "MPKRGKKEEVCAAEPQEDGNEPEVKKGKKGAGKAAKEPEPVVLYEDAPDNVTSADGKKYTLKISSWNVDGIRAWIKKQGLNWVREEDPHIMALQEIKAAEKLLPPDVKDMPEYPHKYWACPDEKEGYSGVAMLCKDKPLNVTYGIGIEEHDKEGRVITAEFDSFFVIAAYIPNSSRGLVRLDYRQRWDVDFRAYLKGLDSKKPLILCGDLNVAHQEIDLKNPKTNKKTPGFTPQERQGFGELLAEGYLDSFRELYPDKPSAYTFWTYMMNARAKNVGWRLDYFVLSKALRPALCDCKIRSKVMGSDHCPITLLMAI", "assay": "EMSA"}, "GST-APE1 F264Y": {"molecular_target": "T3, GST-APE1 F264Y (Xenopus laevis, UniProt Q6IP62 1-316, F264Y)", "T3 sequence": "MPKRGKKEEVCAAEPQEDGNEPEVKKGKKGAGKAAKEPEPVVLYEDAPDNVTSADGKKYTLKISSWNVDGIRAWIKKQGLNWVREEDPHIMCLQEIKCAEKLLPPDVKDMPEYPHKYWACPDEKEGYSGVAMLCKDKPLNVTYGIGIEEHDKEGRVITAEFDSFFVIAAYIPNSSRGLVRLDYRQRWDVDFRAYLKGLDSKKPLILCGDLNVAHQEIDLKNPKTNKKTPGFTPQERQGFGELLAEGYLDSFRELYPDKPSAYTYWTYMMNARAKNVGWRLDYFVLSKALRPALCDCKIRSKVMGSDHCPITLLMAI", "assay": "EMSA"}, "GST-APE1 F264L": {"molecular_target": "T4, GST-APE1 F264L (Xenopus laevis, UniProt Q6IP62 1-316, F264L)", "T4 sequence": "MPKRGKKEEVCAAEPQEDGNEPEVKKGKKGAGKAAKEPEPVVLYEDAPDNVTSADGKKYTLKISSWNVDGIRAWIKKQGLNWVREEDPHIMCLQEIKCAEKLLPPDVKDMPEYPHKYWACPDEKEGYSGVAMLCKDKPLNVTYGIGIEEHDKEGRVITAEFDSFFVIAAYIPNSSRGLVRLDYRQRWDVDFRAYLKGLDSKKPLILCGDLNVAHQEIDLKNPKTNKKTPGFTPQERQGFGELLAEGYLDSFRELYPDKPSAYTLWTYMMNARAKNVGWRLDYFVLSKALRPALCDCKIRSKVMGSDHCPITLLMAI", "assay": "EMSA"}, "GST-APE1 DA": {"molecular_target": "T5, GST-APE1 DA (Xenopus laevis, UniProt Q6IP62 1-316, D306A)", "T5 sequence": "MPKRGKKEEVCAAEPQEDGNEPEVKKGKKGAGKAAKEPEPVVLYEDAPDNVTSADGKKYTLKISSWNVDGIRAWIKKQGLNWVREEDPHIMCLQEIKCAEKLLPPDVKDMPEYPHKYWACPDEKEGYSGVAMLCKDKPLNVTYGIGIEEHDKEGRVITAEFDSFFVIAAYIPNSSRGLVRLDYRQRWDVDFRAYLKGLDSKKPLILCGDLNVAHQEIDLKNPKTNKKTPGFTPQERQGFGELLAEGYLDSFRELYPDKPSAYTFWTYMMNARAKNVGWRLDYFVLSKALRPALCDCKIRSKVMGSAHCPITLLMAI", "assay": "EMSA"}, "Myc-APE2": {"molecular_target": "T6, Myc-APE2 (UniProt Q6DDT4 1-517)", "T6 sequence": "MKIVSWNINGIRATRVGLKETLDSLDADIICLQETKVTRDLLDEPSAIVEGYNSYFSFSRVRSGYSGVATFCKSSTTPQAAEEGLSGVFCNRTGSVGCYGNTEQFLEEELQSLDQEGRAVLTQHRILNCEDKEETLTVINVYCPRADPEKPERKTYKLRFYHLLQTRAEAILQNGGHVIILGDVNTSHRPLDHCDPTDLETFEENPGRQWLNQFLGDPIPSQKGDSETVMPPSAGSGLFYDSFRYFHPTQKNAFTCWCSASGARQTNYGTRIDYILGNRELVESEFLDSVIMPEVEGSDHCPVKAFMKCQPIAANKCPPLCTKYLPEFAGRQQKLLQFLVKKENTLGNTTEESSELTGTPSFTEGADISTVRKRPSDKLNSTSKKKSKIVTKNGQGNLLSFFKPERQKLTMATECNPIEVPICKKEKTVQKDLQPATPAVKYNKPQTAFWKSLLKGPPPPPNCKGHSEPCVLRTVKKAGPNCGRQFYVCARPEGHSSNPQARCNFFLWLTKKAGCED", "assay": "pull-down"}, "GST-APE1 WT [2]": {"molecular_target": "T1, GST-APE1 WT", "assay": "EMSA", "remark": "listed apart in the source"}},
  "note": "Like-named read-outs stand apart in the source and are kept apart here.",
  "data": [
    {"binder": "B1", "values": [
      {"measurement": "binding result", "setting": "GST-APE1 WT [1]", "result": "binds"},
      {"measurement": "binding result", "setting": "GST-APE1 CA", "result": "no binding"},
      {"measurement": "binding result", "setting": "GST-APE1 F264Y", "result": "no binding"},
      {"measurement": "binding result", "setting": "GST-APE1 F264L", "result": "no binding"},
      {"measurement": "binding result", "setting": "GST-APE1 DA", "result": "no binding"}
    ]},
    {"binder": "B2", "values": [
      {"measurement": "binding result", "setting": "Myc-APE2", "result": "binds"}
    ]},
    {"binder": "B3", "values": [
      {"measurement": "binding result", "setting": "GST-APE1 WT [2]", "result": "no binding"}
    ]},
    {"binder": "B4", "values": [
      {"measurement": "binding result", "setting": "Myc-APE2", "result": "no binding"}
    ]}
  ]
}
